Data taken from patent publication US20160177307.

Tests used:
Test in all cases: filter
[1] = system: T1, VEGF-165 (Homo sapiens), P15692-4
T1 sequence: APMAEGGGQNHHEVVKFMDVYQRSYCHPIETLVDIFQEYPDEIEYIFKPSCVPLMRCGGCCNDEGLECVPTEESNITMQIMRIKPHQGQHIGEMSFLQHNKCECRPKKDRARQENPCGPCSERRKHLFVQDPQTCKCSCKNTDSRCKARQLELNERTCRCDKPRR

[2] = system: T2, VEGF-164 (Rattus norvegicus), P16612-2; conditions: P=Nap-dU
T2 sequence: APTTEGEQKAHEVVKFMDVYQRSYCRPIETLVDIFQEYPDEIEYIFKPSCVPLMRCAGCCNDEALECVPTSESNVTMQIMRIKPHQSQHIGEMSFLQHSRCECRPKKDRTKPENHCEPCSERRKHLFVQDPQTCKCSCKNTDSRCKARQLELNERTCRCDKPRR

[3] = system: T3, VEGF-121 (Homo sapiens), P15692-9
T3 sequence: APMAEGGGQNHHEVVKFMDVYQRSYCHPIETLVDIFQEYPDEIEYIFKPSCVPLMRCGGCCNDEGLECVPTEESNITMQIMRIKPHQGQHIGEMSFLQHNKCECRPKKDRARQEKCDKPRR

[4] = biological target: PDGF-BB (platelet-derived growth factor BB) (Homo sapiens) (UniProt P01127)
PDGF-AB = PDGF-AB (UniProt P04085+P01127)
[5] = Nap-dU, Bn-dU, MBn-dU, 2'-OMe, C3, 4 Heg between parts
[6] = Nap-dU, Bn-dU, MBn-dU, 2'-OMe, C3, 5 Heg between parts
[7] = Nap-dU, Bn-dU, MBn-dU, 2'-OMe, C3, 6 Heg between parts
[8] = NapdU at P, C3 spacer 15,18, specificity control
[9] = VEGF-PDGF heterodimer, no Heg linker, NapdU, BndU
[10] = BndU at 1,2,7,8,16,17,18,20, Heg at 5, 2'-OMe A3,A11,A21,G24
[11] = Bn-dU, Heg linker, 2'-OMe A3, A11, A19, A21, G24
[12] = Bn-dU, MBn-dU, Nap-dU, 2'-OMe, C3, 2 Heg between parts
[13] = Bn-dU, MBn-dU, Nap-dU, 2'-OMe, C3, 4 Heg between parts
[14] = Bn-dU, MBn-dU, Nap-dU, 2'-OMe, C3, 5 Heg between parts
[15] = Bn-dU, MBn-dU, Nap-dU, 2'-OMe, C3, 6 Heg between parts

Chain of PDGF-AB (P01127 82-190, chain 2 of 2, other chains not shown): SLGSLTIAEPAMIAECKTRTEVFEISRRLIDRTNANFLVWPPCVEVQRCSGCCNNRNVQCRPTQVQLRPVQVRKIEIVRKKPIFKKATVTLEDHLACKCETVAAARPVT
Chain of PDGF-BB (platelet-derived growth factor BB) (Homo sapiens) (P01127 82-190): as the sequence (P01127 82-190, chain 2 of 2, other chains not shown) above

## AATCAGCCGTTCAAGTGCTTGTAGGATTTAAATGGA [4867-31_39]
[1]; P=Nap-dU
  Kd: 0.2 nM
[2]
  Kd: 0.09 nM
[3]; P=Nap-dU
  Kd: 0.62 nM

## AATCAGCCGTTCAAGTGCTTGTAGGATTTAAATGGAA [4867-31_33]
[1]; P=Nap-dU
  Kd: 0.11 nM
[2]
  Kd: 0.04 nM
[3]; P=Nap-dU
  Kd: 0.55 nM

## AATCAGCCGTTCAAGTGCTTGTAGGATTTAAATGGAAT [4867-31_27]
[1]; P=Nap-dU
  Kd: 0.11 nM
[2]
  Kd: 0.07 nM
[3]; P=Nap-dU
  Kd: 0.59 nM

## AGCCGTTCAAGTGCTTGTAGGATTTAAATG [4867-31_52]
[1]; NapdU at P
  Kd: 0.17 nM
[2]
  Kd: 0.58 nM
[3]; NapdU at P
  Kd: 2.8 nM

## AGCCGTTCAAGTGCTTGTAGGATTTAAATGGAA [4867-31_37]
[1]; P=Nap-dU
  Kd: 0.092 nM
[2]
  Kd: 0.04 nM
[3]; P=Nap-dU
  Kd: 0.21 nM

## AGCCGTTCAAGTGCTTGTAGGATTTAAATGGAAT [4867-31_31]
[1]; P=Nap-dU
  Kd: 0.17 nM
[2]
  Kd: 0.12 nM
[3]; P=Nap-dU
  Kd: 1 nM

## ATCAGCCGTTCAAGTGCTTGTAGGATTTAAATGGA [4867-31_40]
[1]; P=Nap-dU
  Kd: 0.14 nM
[2]
  Kd: 0.1 nM
[3]; P=Nap-dU
  Kd: 0.7 nM

## ATCAGCCGTTCAAGTGCTTGTAGGATTTAAATGGAA [4867-31_34]
[1]; P=Nap-dU
  Kd: 0.35 nM
[2]
  Kd: 0.05 nM
[3]; P=Nap-dU
  Kd: 0.47 nM

## ATCAGCCGTTCAAGTGCTTGTAGGATTTAAATGGAAT [4867-31_28]
[1]; P=Nap-dU
  Kd: 0.1 nM
[2]
  Kd: 0.07 nM
[3]; P=Nap-dU
  Kd: 0.97 nM

## CAATCAGCCGTTCAAGTGCTTGTAGGATTTAAATGGA [4867-31_38]
[1]; P=Nap-dU
  Kd: 0.17 nM
[2]
  Kd: 0.09 nM
[3]; P=Nap-dU
  Kd: 0.81 nM

## CAATCAGCCGTTCAAGTGCTTGTAGGATTTAAATGGAA [4867-31_32]
[1]; P=Nap-dU
  Kd: 0.1 nM
[2]
  Kd: 0.06 nM
[3]; P=Nap-dU
  Kd: 0.51 nM

## CAATCAGCCGTTCAAGTGCTTGTAGGATTTAAATGGAAT [4867-31_26]
[1]; P=Nap-dU, SB18T, 37 C
  Kd: 0.075 nM
[2]
  Kd: 0.07 nM
[3]; P=Nap-dU
  Kd: 0.49 nM

## CAGCCGTTCAAGTGCTTGTAGGATTTAA [4867-31_48]
[2]
  Kd: 142 nM

## CAGCCGTTCAAGTGCTTGTAGGATTTAAATG [4867-31_45]
[1]; NapdU at P
  Kd: 1.1 nM
[2]
  Kd: 4.5 nM
[3]; NapdU at P
  Kd: 3.3 nM

## CAGCCGTTCAAGTGCTTGTAGGATTTAAATGG [4867-31_44]
[1]; NapdU at P
  Kd: 0.13 nM
[2]
  Kd: 0.38 nM
[3]; NapdU at P
  Kd: 0.14 nM

## CAGCCGTTCAAGTGCTTGTAGGATTTAAATGGAA [4867-31_36]
[1]; P=Nap-dU
  Kd: 0.11 nM
[2]
  Kd: 0.06 nM
[3]; P=Nap-dU
  Kd: 0.39 nM

## CAGCCGTTCAAGTGCTTGTAGGATTTAAATGGAAT [4867-31_30]
[1]; P=Nap-dU
  Kd: 0.2 nM
[2]
  Kd: 0.15 nM
[3]; P=Nap-dU
  Kd: 1.4 nM

## CCGTTCAAGTGCTTGTAGGATTTAAATGGA [4867-31_59]
[1]; NapdU at P
  Kd: 0.16 nM
[2]
  Kd: 0.2 nM
[3]; NapdU at P
  Kd: 0.14 nM

## CCGTTCAAGTGCTTGTAGGATTTAAATGGTTACGTTACCGCGTTTATAGCG [4149-8_411]
[1]; [5]
  Kd: 0.045 nM
[4]; [5]
  Kd: 0.0072 nM
[3]; [5]
  Kd: 0.02 nM

## CCGTTCAAGTGCTTGTAGGATTTAAATGGTTACGTTACCGCGTTTATAGCG [4149-8_412]
[1]; [6]
  Kd: 0.045 nM
[4]; [6]
  Kd: 0.0086 nM
[3]; [6]
  Kd: 0.02 nM

## CCGTTCAAGTGCTTGTAGGATTTAAATGGTTACGTTACCGCGTTTATAGCG [4149-8_413]
[1]; [7]
  Kd: 0.063 nM
[4]; [7]
  Kd: 0.01 nM
[3]; [7]
  Kd: 0.04 nM

## CCGTTCAAGTGCTTTAGATTTAAATGG [4867-31_183]
[1]; Nap-dU, C3 spacer at 15 and 18, VEGF
  Kd: 0.138 nM
PDGF-AB; [8]
  Kd: 14.5 nM
[4]; [8]
  Kd: 195 nM
[3]; NapdU at P, C3 spacer 15,18
  Kd: 0.091 nM

## CCGTTCAAGTGCTTTAGATTTAAATGGTTACGTTACACGCGTTTATAGC [4149-8_313]
[1]; Nap-dU (VEGF part), Bn-dU (PDGF part), C3, Heg, 2'-OMe, VEGF
  Kd: 0.258 nM
PDGF-AB; [9]
  Kd: 0.165 nM
[4]; [9]
  Kd: 0.0933 nM
[3]; [9]
  Kd: 4.31 nM

## CCGTTCAAGTGCTTTAGATTTAAATGGTTACGTTACACGCGTTTATAGC [4149-8_314]
[1]; Nap-dU, Bn-dU, C3, 1 Heg linker, 2'-OMe, VEGF
  Kd: 0.143 nM
PDGF-AB; VEGF-1Heg-PDGF, NapdU, BndU
  Kd: 0.111 nM
[4]; VEGF-1Heg-PDGF, NapdU, BndU
  Kd: 0.136 nM
[3]; VEGF-1Heg-PDGF, NapdU, BndU
  Kd: 1.55 nM

## CCGTTCAAGTGCTTTAGATTTAAATGGTTACGTTACACGCGTTTATAGC [4149-8_315]
[1]; Nap-dU, Bn-dU, C3, 2 Heg linker, 2'-OMe, VEGF
  Kd: 0.086 nM
PDGF-AB; VEGF-2Heg-PDGF, NapdU, BndU
  Kd: 0.123 nM
[4]; VEGF-2Heg-PDGF, NapdU, BndU
  Kd: 0.119 nM
[3]; VEGF-2Heg-PDGF, NapdU, BndU
  Kd: 0.758 nM

## CCGTTCAAGTGCTTTAGATTTAAATGGTTACGTTACACGCGTTTATAGC [4149-8_316]
[1]; Nap-dU, Bn-dU, C3, 3 Heg linker, 2'-OMe, VEGF
  Kd: 0.157 nM
PDGF-AB; VEGF-3Heg-PDGF, NapdU, BndU
  Kd: 0.137 nM
[4]; VEGF-3Heg-PDGF, NapdU, BndU
  Kd: 0.0897 nM
[3]; VEGF-3Heg-PDGF, NapdU, BndU
  Kd: 0.5 nM

## CGTTCAAGTGCTTGTAGGATTTAAATGGA [4867-31_60]
[1]; NapdU at P
  Kd: 0.61 nM
[2]
  Kd: 1.4 nM
[3]; NapdU at P
  Kd: 2.2 nM

## GCCGTTCAAGTGCTTGTAGGATTTAAATGGA [4867-31_58]
[1]; NapdU at P
  Kd: 0.1 nM
[2]
  Kd: 0.21 nM
[3]; NapdU at P
  Kd: 0.15 nM

## GTTCAAGTGCTTGTAGGATTTAAATGGA [4867-31_61]
[1]; NapdU at P
  Kd: 2.9 nM
[2]
  Kd: 13 nM
[3]; NapdU at P
  Kd: 33 nM

## TCAATCAGCCGTTCAAGTGCTTGTAGGATTTAAAT [4867-31_25]
[1]; NapdU at P
  Kd: 26 nM
[2]
  Kd: 16 nM
[3]; NapdU at P
  Kd: 70 nM

## TCAATCAGCCGTTCAAGTGCTTGTAGGATTTAAATG [4867-31_24]
[1]; NapdU at P
  Kd: 2.8 nM
[2]
  Kd: 4.2 nM
[3]; NapdU at P
  Kd: 36 nM

## TCAATCAGCCGTTCAAGTGCTTGTAGGATTTAAATGG [4867-31_23]
[1]; NapdU at P
  Kd: 0.3 nM
[2]
  Kd: 0.66 nM
[3]; NapdU at P
  Kd: 1.3 nM

## TCAATCAGCCGTTCAAGTGCTTGTAGGATTTAAATGGA [4867-31_22]
[1]; NapdU at P
  Kd: 0.26 nM
[2]
  Kd: 0.54 nM
[3]; NapdU at P
  Kd: 0.82 nM

## TCAGCCGTTCAAGTGCTTGTAGGATTTAAATGGA [4867-31_41]
[1]; P=Nap-dU
  Kd: 0.13 nM
[2]
  Kd: 0.08 nM
[3]; P=Nap-dU
  Kd: 0.63 nM

## TCAGCCGTTCAAGTGCTTGTAGGATTTAAATGGAA [4867-31_35]
[1]; P=Nap-dU
  Kd: 0.11 nM
[2]
  Kd: 0.05 nM

## TCAGCCGTTCAAGTGCTTGTAGGATTTAAATGGAAT [4867-31_29]
[1]; P=Nap-dU
  Kd: 0.13 nM
[2]
  Kd: 0.08 nM
[3]; P=Nap-dU
  Kd: 0.96 nM

## TTACGACTACGTTACACGCGTTTATAGC [4149-8_39]
PDGF-AB; BndU at 1,2,8,12,13,21,22,23,25, rest DNA
  Kd: 0.0476 nM
[4]; BndU at 1,2,8,12,13,21,22,23,25, rest DNA, SB18T, 37 C, Table 18 gives 87.5 pM
  Kd: 0.11 nM

## TTACGTTACACGCGTTTATAGCG [4149-8_130]
PDGF-AB; [10]
  Kd: 0.141 nM
[4]; [10]
  Kd: 0.0759 nM

## TTACGTTACACGCGTTTATAGCG [4149-8_273]
PDGF-AB; [11]
  Kd: 0.189 nM
[4]; [11]
  Kd: 0.0614 nM

## TTACGTTACCGCGTTTATAGCGCCGTTCAAGTGCTTGTAGGATTTAAATGG [4149-8_414]
[1]; [12]
  Kd: 0.051 nM
[4]; [12]
  Kd: 0.01 nM
[3]; [12]
  Kd: 0.023 nM

## TTACGTTACCGCGTTTATAGCGCCGTTCAAGTGCTTGTAGGATTTAAATGG [4149-8_415]
[1]; [13]
  Kd: 0.03 nM
[4]; [13]
  Kd: 0.0081 nM
[3]; [13]
  Kd: 0.04 nM

## TTACGTTACCGCGTTTATAGCGCCGTTCAAGTGCTTGTAGGATTTAAATGG [4149-8_416]
[1]; [14]
  Kd: 0.03 nM
[4]; [14]
  Kd: 0.0089 nM
[3]; [14]
  Kd: 0.041 nM

## TTACGTTACCGCGTTTATAGCGCCGTTCAAGTGCTTGTAGGATTTAAATGG [4149-8_417]
[1]; [15]
  Kd: 0.065 nM
[4]; [15]
  Kd: 0.011 nM
[3]; [15]
  Kd: 0.043 nM
